Assay [1] deals with CytERM-EGFP (not stated | Aequorea victoria) (UniProt P00180).
The next assay addresses CytERM-TagRFP (UniProt P00180).

Chain of CytERM-TagRFP (P00180 whole entry): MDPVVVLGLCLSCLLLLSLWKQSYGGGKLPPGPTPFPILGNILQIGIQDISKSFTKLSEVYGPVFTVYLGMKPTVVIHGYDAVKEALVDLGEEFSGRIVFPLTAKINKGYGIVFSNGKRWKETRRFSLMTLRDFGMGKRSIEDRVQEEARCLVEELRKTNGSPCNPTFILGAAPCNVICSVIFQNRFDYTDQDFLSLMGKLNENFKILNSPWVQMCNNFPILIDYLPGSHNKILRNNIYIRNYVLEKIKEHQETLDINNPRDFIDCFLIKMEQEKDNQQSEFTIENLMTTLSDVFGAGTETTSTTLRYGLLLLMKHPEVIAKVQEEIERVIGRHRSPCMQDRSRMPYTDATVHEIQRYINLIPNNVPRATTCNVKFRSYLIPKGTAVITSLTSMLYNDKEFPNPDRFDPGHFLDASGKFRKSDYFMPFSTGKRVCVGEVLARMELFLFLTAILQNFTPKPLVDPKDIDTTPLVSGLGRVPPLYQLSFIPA

Turning to CytERM-EGFP (from UniProt P00180 1-29), the OSER assay: average structure area, U2OS cells in assay [1] is 8.7 μm^2.
“CytERM-TagRFP (from UniProt P00180 1-29)”: in the assay with CytERM-TagRFP, the OSER assay: ratio of structure MFI to nuclear envelope MFI, U2OS cells stood at 3.9.

These data come from paper PMC3324619.
